Data on two molecules can be found in paper PMC4182348 (PLoS ONE, 2014).

The target in assay [1] is tetanus toxin fragment C of the heavy chain. Briefly: ELISA. As to conditions: one partner purified. (An ELISA detects its analyte on a solid surface through an enzyme-linked reagent.)
Assay [2] has as its target T1, tetanus toxin light chain (Clostridium tetani, strain  …, UniProt P04958).
T1 construct: source: bought: List Biological Laboratories
Kind of assay: ELISA. The settings on record: one partner purified.

tetanus toxin fragment C of the heavy chain, sequence (P04958 865-1315 limits assumed): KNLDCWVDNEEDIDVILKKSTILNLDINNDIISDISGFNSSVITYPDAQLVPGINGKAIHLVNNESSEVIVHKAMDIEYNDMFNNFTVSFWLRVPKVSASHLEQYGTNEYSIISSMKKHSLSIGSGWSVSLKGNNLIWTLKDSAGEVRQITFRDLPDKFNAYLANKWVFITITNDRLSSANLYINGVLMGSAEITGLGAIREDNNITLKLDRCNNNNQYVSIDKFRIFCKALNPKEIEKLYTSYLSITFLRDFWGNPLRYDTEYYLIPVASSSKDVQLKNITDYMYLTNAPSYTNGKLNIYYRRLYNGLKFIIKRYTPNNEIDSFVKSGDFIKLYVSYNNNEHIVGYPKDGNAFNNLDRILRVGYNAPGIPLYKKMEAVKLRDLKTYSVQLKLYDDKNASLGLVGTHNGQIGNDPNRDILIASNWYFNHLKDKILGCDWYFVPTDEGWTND
T1 sequence (P04958 1-457): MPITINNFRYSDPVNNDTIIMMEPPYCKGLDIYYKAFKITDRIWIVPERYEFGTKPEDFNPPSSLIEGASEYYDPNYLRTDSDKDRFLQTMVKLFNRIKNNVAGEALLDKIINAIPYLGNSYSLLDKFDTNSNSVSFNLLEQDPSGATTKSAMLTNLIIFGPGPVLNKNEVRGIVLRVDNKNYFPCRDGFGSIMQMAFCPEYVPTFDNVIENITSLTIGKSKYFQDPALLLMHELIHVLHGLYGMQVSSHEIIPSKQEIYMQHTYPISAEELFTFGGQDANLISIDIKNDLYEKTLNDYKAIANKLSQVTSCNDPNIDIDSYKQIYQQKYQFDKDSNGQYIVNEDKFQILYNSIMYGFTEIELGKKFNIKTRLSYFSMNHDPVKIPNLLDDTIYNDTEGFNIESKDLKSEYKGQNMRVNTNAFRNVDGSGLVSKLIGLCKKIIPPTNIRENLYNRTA

B1: anti-TT mAb of hybridoma 24 (antibody, V domains shown)
VH: VQLQQTGPGLVQPSQSLSITCTVSAFSLTNYGIHWVRQSPGKGLEWLGVIWTGGSTDYNAPFISRLSISKDNSKSQVFFKMNSLQANDTAIYYCVRDGYRVMDYWGQGTSVTVSS
VL: LSASVGETVTITCRASGNIHNYLAWYQQKQGKSPQLLVYNAKTLTDGVPSRFSGSGSGTQHSLKINSLQPEDFGSYYCQHFWTIPWTFGGGTKLEIK
On to B1, for which the values for the binding result in assay [1] and in assay [2] were “binds” and “no binding”, respectively.

B2: anti-TT mAb of hybridoma 14 (antibody, V domains shown)
VH: VQLQESGPGLVAPSQSLSITCTVSGFSLTSYGVHWVRQPPGKGLEWLGVIWPGGSTNYNSALMSRLSISQDNSKSQVFLKMNSLQIDDTAMYHCARDFQYGNYFDYWGQGTSLTVSS
VL: MPASPGEKITITCSASSSISSNYLHWYQQKPGFSPKLLIYRTSNLASGVPARFSGSGSGTSYSLTVGTMEAEDVATYYCQQGTSIPTFGAGTKLELK
B2: the binding result in assay [1] and in assay [2] was “no binding” each time.
